The supplement of paper PMC10567573

B1: RAB40A (parent)
chain: NWLGRPSKVLSLQDLCCRTIVSCT
B2: CLPTM1 (parent)
chain: LGCYAVYSLLYLEHKGWYSWVLSM

Variants of: B1
Assay: protein stability index of a GFP-peptide fusion (GPS, HEK-293T) (PSI 1-6); higher = more stable
Settings: c terminus: a fixed tail appended
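Also: lentivirally expressed fusions sorted by FACS into six bins by GFP to DsRed ratio, PSI derived from sequencing read proportions per bin multiplied by bin number.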

Protein stability index of substitutions, site by site:
T24: I 1.58 | D 2.85
V21: F 2.43 | P 2.89 | D 3.02 | N 2.8 | S 2.77 | H 2.44 | M 2.66 | A 2.64 | W 2.46 | I 2.31 | T 2.58 | L 2.04 | Y 2.08 | Q 2.8 | G 2.64 | C 2.41 | K 2.55 | R 3.04 | E 1.88
C23: Y 2.35 | E 2.8 | G 3.28 | L 2.37 | M 2.33 | I 2.33 | F 2.33 | P 2.68 | D 3.12 | H 2.69 | A 2.74 | T 2.66 | V 2.21 | K 2.92 | N 2.93 | R 2.92 | Q 3.46 | S 2.95 | W 2.67
R18: C 2.35 | A 2.03 | K 2.65 | Q 2.26 | Y 1.73 | M 1.72 | F 1.87 | W 1.83 | P 1.61 | H 1.98 | D 1.99 | G 2 | N 2.5 | E 2.49 | I 1.68 | V 2.39 | S 2.58 | L 2.11 | T 2.26
S22: I 1.88 | R 2.77 | L 2.31 | A 2.23 | F 2.47 | N 2.69 | T 2.4 | W 2.04 | C 2.59 | G 2.57 | K 2.75 | M 2.61 | H 2.26 | D 2.83 | V 1.77 | P 2 | Y 1.95 | Q 2.59 | E 2.57
T19: F 2.26 | S 2.51 | Q 2.31 | N 2.91 | P 1.86 | K 2.69 | A 2.52 | C 2.04 | V 2.22 | L 2.16 | Y 2.23 | I 2.6 | D 2.64 | G 2.07 | R 2.19 | W 1.97 | H 2.41 | E 2.53 | M 2.27

Variants of: B2
Assay: as above
Settings: c terminus: a fixed tail appended

Protein stability index: each site, then its substitutions
C3: L 3.21 | S 3.55 | H 2.58 | V 3.36 | N 3.61 | R 1.63 | D 2.59 | W 2.24 | F 2.37 | G 2.35 | E 3.26 | K 2.74 | I 2.62 | Y 3.21 | M 3.15 | T 2.52 | P 2.26
L1: Y 3.77 | W 2.96 | D 2.85 | M 3.26 | H 2.19 | S 3.4 | E 3.05 | V 2.65 | Q 4.62 | G 2.73 | N 3.26 | T 3.54 | F 2.55 | R 3.05 | I 3.58 | C 2.92
A5: D 2.12 | E 3.12 | C 3.34 | F 3.69
Y4: C 3.33 | Q 2.4 | F 2.33 | V 3.14 | W 2.19 | D 1.9 | P 3.14 | R 2.91 | N 3.2 | L 3.04 | I 1.89 | H 2.69 | K 3.58 | M 3.4 | G 3.18 | S 3.75 | T 3.11 | A 4.36
G2: M 3.58 | R 3.1 | N 3.83 | V 2.32 | S 1.47 | T 3.4 | F 2.72 | W 2.07 | L 3.57 | D 3.19 | I 2.87 | Q 3.29 | P 2.76 | Y 3.37 | E 3.26
